Source: US20110195083A1

How the values were obtained:
Assay in all cases: cell-based or functional assay
[1] = molecular target: HIV-1 BX08 envelope protein (Env) on pseudovirus (HIV-1 strain BX08)
[2] = molecular target: HIV-1 BaL envelope protein (Env) on pseudovirus (HIV-1 strain Bal)
[3] = molecular target: HIV-1 6535 envelope protein (Env) on pseudovirus (HIV-1 strain 6535)

CD4-mimic peptide CD4M33 gave a neutralization IC50, CD4M33 alone [1] of 0.173 µg/mL, a neutralization IC50, CD4M33 concentration in combination with serum B714 [1] of 0.036 µg/mL and a neutralization IC50, CD4M33 concentration in combination with serum B716 [1] of 0.036 µg/mL. It also gave a neutralization IC50, CD4M33 concentration in combination with serum B718 [1] of 0.028 µg/mL, a neutralization IC50, CD4M33 concentration in combination with serum B720 [1] of 0.014 µg/mL and a neutralization IC50, CD4M33 alone [2] greater than 0.25 µg/mL. It also gave a neutralization IC50, CD4M33 concentration in combination with serum B714 [2] of 0.048 µg/mL, a neutralization IC50, CD4M33 concentration in combination with serum B716 [2] of 0.057 µg/mL and a neutralization IC50, CD4M33 concentration in combination with serum B718 [2] of 0.045 µg/mL. For the same substance, the neutralization IC50, CD4M33 concentration in combination with serum B720 [2] was 0.017 µg/mL, the neutralization IC50, CD4M33 alone [3] was 0.721 µg/mL and the neutralization IC50, CD4M33 concentration in combination with serum B714 [3] was 0.431 µg/mL. The neutralization IC50, CD4M33 concentration in combination with serum B716 [3] was 0.431 µg/mL, the neutralization IC50, CD4M33 concentration in combination with serum B718 [3] was 0.481 µg/mL and the neutralization IC50, CD4M33 concentration in combination with serum B720 [3] was 0.189 µg/mL.
